T1: TNF-beta (human, UniProt P01374 35-205)
T1 construct: also called TNFβ; Tumour Necrosis Factor-beta
T1 sequence (looked up): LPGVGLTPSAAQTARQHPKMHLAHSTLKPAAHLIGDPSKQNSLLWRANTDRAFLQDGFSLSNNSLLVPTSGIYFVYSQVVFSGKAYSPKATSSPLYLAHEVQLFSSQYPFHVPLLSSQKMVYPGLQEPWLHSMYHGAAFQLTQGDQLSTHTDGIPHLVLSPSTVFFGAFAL

T2: Fas ligand (human, UniProt P48023 134-281, limits assumed)
T2 sequence (looked up): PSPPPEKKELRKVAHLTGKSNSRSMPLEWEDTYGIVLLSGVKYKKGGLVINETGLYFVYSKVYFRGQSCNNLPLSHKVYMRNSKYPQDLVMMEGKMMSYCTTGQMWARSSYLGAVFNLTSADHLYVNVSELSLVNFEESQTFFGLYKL


Assays:
[1] = biological target: T3, B Lymphocyte Stimulator, soluble form (human) (human, UniProt Q9Y275 134-285, biotinylated with NHS-biotin where used as biotinylated B Lymphocyte Stimulator); test: phage competition ELISA on P388 plasma membranes
T3 construct: Coated on plastic, captured on streptavidin plates, amine-coupled to a CM5 chip or free in solution, depending on the assay; also called BLyS; immobilized B Lymphocyte Stimulator
Method: P388 plasma membranes (50 μl per well) were coated at 10 μg/ml in PBS onto Falcon 96-well plates overnight at 4° C. The method is otherwise essentially as described Example 16.

[2] = biological target: T4, mouse B Lymphocyte Stimulator (mouse, UniProt Q9WU72 127-309, limits assumed); test: phage ELISA
T4 construct: also called murine B Lymphocyte Stimulator; immobilized mouse B Lymphocyte Stimulator

TNF-alpha = biological target: T5, TNF-alpha (human, UniProt P01375 77-233); test: phage ELISA
T5 construct: also called TNFα; TNF-α

TNF-beta = biological target: T1, TNF-beta; test: phage ELISA
Fas ligand = biological target: T2, Fas ligand; test: phage ELISA
TRAIL = biological target: T6, TRAIL (human, UniProt P50591 114-281); test: phage ELISA
T6 construct: also called TNF-related apoptosis inducing ligand

[3] = biological target: T3, B Lymphocyte Stimulator, soluble form …; test: purified scFv, inhibition of biotinylated BLyS binding to IM9 cells
Method: To a separate 96-well plate, titrate test scFvs in MPBS, in triplicate, over a concentration range from 10 μg/ml down to 0.001 μg/ml were added. The final volume of test scFv in each well was 55 μl. […] Plates were then incubated at room temperature for 30 minutes.
Plates were washed three times in PBST and three times in PBS, tapped dry and 50 μl per well added of streptavidin-Delfia (Wallac) at 1:1000 dilution in the Manufacturer's assay buffer. The plates were then incubated at room temperature for 1 hour and washed six times in Delfia wash solution (Wallac). After tapping the plates dry, 100 μl per well of Delfia enhancement solution (Wallac) was added. The plates were gently tapped to encourage micelle formation, incubated at room temperature for 10 minutes, and fluorescence read on a Wallac 1420 workstation at […].

[4] = biological target: T7, membrane-bound B Lymphocyte Stimulator on U937 plasma membrane preparations (human, UniProt Q9Y275 1-285); test: phage ELISA
T7 construct: Natural protein in plasma membrane fractions of the human cell line U937 coated on ELISA plates; also called U937 plasma membranes; U937 membranes

[5] = biological target: T3, B Lymphocyte Stimulator, soluble form …; test: phage competition ELISA on U937 plasma membranes
Method: (§1) For each test phage antibody, 3 aliquots of 20 μl 18% marvel/6×PBS were transferred into separate wells of a 96-well plate. The first aliquot was supplemented with His-tagged B Lymphocyte Stimulator to a final concentration of 60 μg/ml. The second aliquot was supplemented with soluble B Lymphocyte Stimulator to a final concentration of 60 μg/ml. The third aliquot was not supplemented with any competing antigen. One hundred μl of phage supernatant was then added to each aliquot and left to block at room temperature for 1 hour.
(§2) The antigen-coated plates were washed once with PBS before the addition of 200 μl/well 3% marvel/PBS. These plates were left to block at 37° C. for 1 hour and were then washed once with PBS. Duplicate samples of 50 μl pre-blocked phage (above) were added to the antigen-coated plates and left at room temperature for 1 hour. Plates were washed 3× with PBS/0.1% Tween 20, then 3× with PBS. Fifty μl/well mouse anti-M13 HRP (Pharmacia) at 1/5000 in 3% Marvel/PBS was added and left for 1 hour at room temperature. Plates were washed 3 times with PBS/0.1% Tween 20, then 3 times with PBS. Fifty […] HRP-labelled anti-mouse Envision polymer (DAKO) at 1/50 in 3% marvel/PBS was added and left for 1 hour at RT. Plates were washed 3 times with PBS/0.1% Tween 20, then 3 times with PBS. Next, 50 μl/well of TMB (Sigma) was added and plates left to develop for 30 to 60 minutes. When sufficient color has developed, 25 μl/well 0.5M H₂SO₄ was added to stop the reaction. The plates were read at 450 nm on a microtiter plate reader (Bio-Rad 3550).

[6] = biological target: T8, HIS-tagged B Lymphocyte Stimulator (human, UniProt Q9Y275 71-285); test: phage competition ELISA on U937 plasma membranes
T8 construct: Expressed in E. coli from pQE9 and purified; also called histidine-tagged B Lymphocyte Stimulator; HIS-B Lymphocyte Stimulator; not shown: histidine tag of the pQE9 vector
Method: as §1, §2

[7] = biological target: T3, B Lymphocyte Stimulator, soluble form …; test: phage ELISA
[8] = biological target: T8, HIS-tagged B Lymphocyte Stimulator; test: phage ELISA
[9] = biological target: T3, B Lymphocyte Stimulator, soluble form …; test: cell-based or functional assay

T6 sequence (P50591 114-281 limits assumed): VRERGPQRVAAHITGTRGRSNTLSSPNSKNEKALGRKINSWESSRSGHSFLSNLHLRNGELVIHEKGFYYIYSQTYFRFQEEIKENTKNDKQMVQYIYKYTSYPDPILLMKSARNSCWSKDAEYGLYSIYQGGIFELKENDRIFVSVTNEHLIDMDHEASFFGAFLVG
T5 sequence (P01375 77-233 limits assumed): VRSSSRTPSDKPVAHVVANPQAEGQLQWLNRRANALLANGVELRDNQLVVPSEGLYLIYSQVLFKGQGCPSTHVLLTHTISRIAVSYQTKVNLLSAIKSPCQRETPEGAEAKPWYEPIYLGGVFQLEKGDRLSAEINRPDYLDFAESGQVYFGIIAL
T4 sequence (Q9WU72 127-309 limits assumed): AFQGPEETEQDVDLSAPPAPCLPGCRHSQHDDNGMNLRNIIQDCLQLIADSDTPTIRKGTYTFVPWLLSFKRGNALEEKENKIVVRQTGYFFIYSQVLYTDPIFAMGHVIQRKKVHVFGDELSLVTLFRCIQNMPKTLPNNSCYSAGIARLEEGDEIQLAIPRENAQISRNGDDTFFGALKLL

binding result [1]	binding result [4]	binding result [6]	Binder	binding result [5]	other results
no binding			I082H08 (scFv) scFv: EVQLVESGGGLVQPGGSLRLSCAASGFTFSDYGMHWVRQRPGKGLEWIAFIGSDGSNKYYGDTVKGRFTISRDNAKNSLYLQMNSLRAEGTAVYYCARDWDMDVWGQGTMVTVSSGGGGSGGGGSGGGGSSHVILTQPRSVSGSPGQSVTISCTGTSSDVGGYHYVSWYQQHPGKAPRLMIYEVTKRPSGVSNRFSGSKSGNTASLTISGVQAEDEADYYCSSYTSASTVIFGGGTKLTVLG		
			I007F11 (scFv) scFv: GVQLVQSGAEVKKPGASVKVSCKASGYTFTNYGITWVRQTPGQGLEWMGWISAYNGNRNYAQKLQGRVTMTTDTSTSTAYMELRSLRSDDTAVYYCVRDGIDILLVPAALMDVWGQGTMVTVSSGGGGSGGGGSGGGGSQSVLTQPASVSGSPGQSITISCTGTSSDVGGYNYVSWYQQHPGKAPKLMIYEGSKRPSGVSNRFSGSKSGNTASLTISGLQAEDEADYYCSSYTTRSTRVFGGGTKLTVLG		binding result [2]: no binding; binding result (TNF-alpha): no binding; binding result (TNF-beta): no binding; binding result (Fas ligand): no binding; binding result (TRAIL): no binding; IC50 [3]: 7.9 nM
	binds	binds	I079B04 (scFv) scFv: EVQLVESGGGLVQPGGSLRLSCAASGFTFSDYAMSWVRQAPGKGLEWVSAISGSGGSTSYADSVKGRFTISRDNSKNTLYLQMNSLRAEDTAVYYCASLLSDYWGRGTTVTVSSGGGGSGGGGSGGGGSQSVLTQPASVSGSPGQSITISCTGTSSDVGGYNYVSWYQQHPGKAPKLMIYEGSKRPSGVSYRFSGSKSGNTASLTISGLQAEDEADYYCSSYTTRSTRVFGGGTKLTVLG	no binding (tested: 60 µg/ml competing antigen)	
no binding			I079E02 (scFv) scFv: QVQLVQSGAEVKKPGSSVKVSCKASGGTFSSYAISWVRQAPGQGLEWMGGIIPIFGTANYAQKFQGRVTITADKSTSTAYMELSSLRSDDTAVYYCARDSGSYYYDAFDIWGKGTMVTVSSGGGGSGGGGSGGGGSDIVMTQSPSTLSASVGDRVTITCRASQGISSWLAWYQQKPGKAPKLLIYAASSLQSGVPSRFSGSGSGTDFTLTISSLQPEDFATYYCQQANSFPLTFGGGTKVEIKR		
no binding			I099D03 (scFv) scFv: QVQLVQSGAEVKKPGASVRVSCKSSGYTFTNYGISWVRQAPGQGLEWMGWISNNNGKTYYAQKVQGRVTMTTDTSTSTDYMELRGLRSDDTAIYYCARDNGGGTIGFDYWGRGTLVTVSSGGGGSGGGGSGGGGSAQAVLTQPSSVSGAPGQRVTMSCTGSSSNIGAGYDVHWYQQLPGTAPKLLIYDNTNRPSGVPDRFSGSRSGTSASLAITGLQAEDEADYFCQSYDITLSAVFGTGTKVTVLG		
	binds	binds	I080B01 (scFv) scFv: QVQLVQSGAEVKKPGASVKVSCKASGYTFTNYYMHWVRQAPGQGLEWMGIINPRDVSTTYAQKFQGRATMTRDTSTSTVYMELNSLRSEDTAVYYCAREYSGYHYVEGGSYAMDVWGQGTMVTVSSGGGGSGGGGSGGGGSALSYVLTQPPSASGTPGQRVTITCSGSSSNIGNYYVNWYQQVSGTAPKLIIYRNNQRPSGVPDRFSGSKSGASASLAISGLRSEDEADYFCAAWDDSLREFVFGTGTKVTVLG	no binding (tested: 60 µg/ml competing antigen)	
	binds		I079C01 (scFv) scFv: EVQLVESGGGLVQPGGSLRLSCAASGFTFSDYGMHWVRQRPGKGLEWIAFIGSDGSNKYYGDTVKGRFTISRDNAKNSLYLQMNSLRAEGTAVYYCARDWDMDVWGQGTMVTVSSGGGGSGGGGSGGGGSHVILTQPRSVSGSPGQSVTISCTGTSSDVGGYHYVSWYQQHPGKAPRLMIYEVTKRPSGVSNRFSGSKSGNTASLTISGVQAEDEADYYCSSYTSASTVIFGGGTKLTVLG		binding result [7]: no binding; binding result [8]: binds
	binds		I082A02 (scFv) scFv: QVQLVQSGAEVKEPGASVKISCEASGYTFTNNFIDWVRQAPGQGLEWMGTISGSTGNTYYKQGFQGRVTMTRDTATSTAYLEVRGLTSEDTAIYFCARPAASSRGPKDAFDIWGQGTLVTVSSGGGGSGGGGSGGGGSQSVLTQPPSVSAAPGQKVTISCSGSTSNIGNNYVSWYQQHPGKAPKLMIYDVSKRPSGVPDRFSGSKSGNSASLDISGLQSEDEADYYCAAWDDSLSEFLFGTGTKLTVLG		binding result [7]: no binding; binding result [8]: binds
	binds	binds	I079F08 (scFv) scFv: QMQLVQSGGGVVQPGRSLRLSCAASGFTFSSYGMHWVRQAPGKGLEWVAVISYDGSIKYYADSVKGRFTISRDNSKNTLYLQMNSLRAEDTAVYYCARYYYHSSGSDAFDIWGQGTLVTVPSGGGGSGGGGSGGGGSQSVLTQPPSASGTPGQRVTISCSGSSSNIGSNTVNWYQRLPGAAPQLLIYNNNQRPSGVPDRFSGSKSGTSASLAISGLQSEDEADYYCAAWDDSLNGWVFGGGTKLTVLG	no binding (tested: 60 µg/ml competing antigen)	
			I116A01 (whole IgG1) (antibody, V domains shown) VH: QVQLQQSGAEVKKPGSSVRVSCKASGGTFNNNAINWVRQAPGQGLEWMGGIIPMFGTAKYSQNFQGRVAITADESTGTASMELSSLRSEDTAVYYCARSRDLLLFPHHALSPWGRGTMVTVSS VL: SSELTQDPAVSVALGQTVRVTCQGDSLRSYYASWYQQKPGQAPVLVIYGKNNRPSGIPDRFSGSSSGNTASLTITGAQAEDEADYYCSSRDSSGNHWVFGGGTELTVLG		IC50 for the inhibition of human B Lymphocyte Stimulator induced-proliferation of murine B cells (3H-thymidine incorporation) [9]: 0.06 nM
